Experimental data published in article PMC3511584.

Assays:
[1] = target: circularly permuted RoCBM21 (CP90) (Rhizopus oryzae); assay: AUC; data not shown: apoCP90 at pH 2.5, 3, 4, 5, 6, 7, 8, 9 and 10, no ligand
[2] = target: circularly permuted RoCBM21 (CP90) (Rhizopus oryzae); assay: AUC; sedimentation velocity, no ligand, protein around 1.0 mg/ml, 40,000 rpm, 25°C, absorbance at 280 nm, SEDFIT

circularly permuted RoCBM21 (CP90) (domain or fragment)
stoichiometry N [1]: 2
stoichiometry N [2]: 2
